± gives the uncertainty stated by the source.

This data set is described as follows: protein stability index of a GFP-peptide fusion (yeast GPS) (PSI 1-4); higher = more stable; sorted into four equal gates, so the index is relative within each strain. An outline of the steps:
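For each peptide, the protein stability index sums the read frequency in every gate after multiplying it by the gate number. Read frequencies came from plasmids that were PCR-amplified from each gate and Illumina-sequenced, with reads assigned to strains by barcodes. The gates were four equal bins of GFP/Cherry fluorescence ratio applied to mid-log yeast in leucine-free medium carrying a pooled library of tiled 17-residue yeast protein peptides fused downstream of GFP on a Cherry-expressing plasmid.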

Regarding TLIVNTDVEKSDPAAKK [SRP21], the protein stability index was 3.13 ± 0.3 (pdr5∆) and 3.7 ± 0.16 (ubr1∆).

In the case of QQAQAQAQAQAQAQAQA [GAL11], the protein stability index (doa10∆) is 2.78 ± 0.097, the protein stability index (pdr5∆) came to 3.06 ± 0.17, the protein stability index (san1∆) came to 2.92 ± 0.081 and the protein stability index (ubr1∆) was 3.12 ± 0.12.

IDYLQRNDKTLELMDSK [POP1]: the protein stability index stood at 3.06 ± 0.096 (doa10∆), 3.19 ± 0.14 (pdr5∆), 2.64 ± 0.25 (san1∆) and 3.24 ± 0.14 (ubr1∆).

FSWGRPADSTYGAYNTQ [PRE4]: the protein stability index is, setting by setting: (doa10∆) 2.75 ± 0.081; (pdr5∆) 2.68 ± 0.064; (san1∆) 2.94 ± 0.059; (ubr1∆) 3.04 ± 0.047.

In the case of GCSKICDLSSKFNKSKA [YCS4], the protein stability index was 3.08 ± 0.087 (doa10∆), 2.82 ± 0.093 (pdr5∆), 3.16 ± 0.045 (san1∆) and 2.99 ± 0.057 (ubr1∆).

Regarding KYLGLKPGSIDAISQVI [FAS1], the protein stability index (doa10∆) is 3.1 ± 0.081, the protein stability index (pdr5∆) was 3.1 ± 0.075, the protein stability index (san1∆) came out at 2.91 ± 0.048 and the protein stability index (ubr1∆) is 3.01 ± 0.061.

For SGSLFGSNNAQTSRGLF [YGL172W/NUP49], the protein stability index runs as follows: (doa10∆) 3.03 ± 0.073; (pdr5∆) 3.01 ± 0.06; (san1∆) 2.95 ± 0.047; (ubr1∆) 2.84 ± 0.064.

The sequence PSYAERQSSDESDNYRL [YML031W/NDC1] came in with a protein stability index (doa10∆) of 2.62 ± 0.049, a protein stability index (pdr5∆) of 2.32 ± 0.043, a protein stability index (san1∆) of 2.75 ± 0.057 and a protein stability index (ubr1∆) of 2.7 ± 0.036.

As for PSFTDEQWITIESQMRD [PRP8], the protein stability index runs as follows: (doa10∆) 2.44 ± 0.067; (pdr5∆) 2.66 ± 0.064; (san1∆) 2.8 ± 0.069; (ubr1∆) 2.6 ± 0.053.

Take NQPHQSQTPSFNTNSSF [YOR098C/NUP1]: the protein stability index is, setting by setting: (doa10∆) 2.64 ± 0.042; (pdr5∆) 2.99 ± 0.034; (san1∆) 2.93 ± 0.036; (ubr1∆) 3.047 ± 0.03.

As to TLELESFLEGSKALNSI [RGR1], the protein stability index reads like this: (doa10∆) 2.54 ± 0.066; (pdr5∆) 2.16 ± 0.067; (san1∆) 3.13 ± 0.066; (ubr1∆) 2.9 ± 0.078.

In the case of DCIIRLPVKWETTTQFK [FAS1], the protein stability index worked out at 1.74 ± 0.083 (doa10∆), 2.03 ± 0.074 (pdr5∆), 1.94 ± 0.091 (san1∆) and 2.43 ± 0.11 (ubr1∆).

Regarding SSNILEDILYYSTCPSE [SRB8], the protein stability index by setting is: (doa10∆) 2.4 ± 0.1; (pdr5∆) 2.4 ± 0.075; (san1∆) 2.77 ± 0.059; (ubr1∆) 2.54 ± 0.062.

Consider RRSKQLINLAKTRVGSV [RPC82], for which the protein stability index (doa10∆) stood at 3.25 ± 0.053, the protein stability index (pdr5∆) was found to be 2.91 ± 0.062, the protein stability index (san1∆) amounted to 2.95 ± 0.049 and the protein stability index (ubr1∆) was found to be 3.25 ± 0.044.

Turning to VSEVAKIMQEATQSGGV [PRE8], the protein stability index is, setting by setting: (doa10∆) 2.96 ± 0.11; (pdr5∆) 2.77 ± 0.17; (san1∆) 2.77 ± 0.15; (ubr1∆) 3.05 ± 0.097.

For the sequence KEAALKTMIKTIEKDKM [SMC2], the protein stability index by setting is: (doa10∆) 2.8 ± 0.17; (pdr5∆) 1.83 ± 0.14; (san1∆) 1.57 ± 0.13; (ubr1∆) 2.03 ± 0.061.

For the sequence KDYEAKTKAMSLSIEEN [POP1], the protein stability index runs as follows: (doa10∆) 2.57 ± 0.13; (pdr5∆) 2.55 ± 0.089; (san1∆) 2.28 ± 0.082; (ubr1∆) 2.95 ± 0.083.

On to DVETVKREIQEALSEKP [RPC53], for which the protein stability index is, setting by setting: (doa10∆) 3.27 ± 0.15; (pdr5∆) 3.42 ± 0.12; (san1∆) 3.17 ± 0.13; (ubr1∆) 3.35 ± 0.1.

For the sequence AAPPSTNFEILNEMLNT [DIS3], the protein stability index runs as follows: (doa10∆) 2.9 ± 0.078; (pdr5∆) 2.83 ± 0.11; (san1∆) 2.95 ± 0.075; (ubr1∆) 3.04 ± 0.061.

For the sequence ITSNHKSSVPGSAELRN [RPN3], the protein stability index was found to be 2.69 ± 0.087 (doa10∆), 3.25 ± 0.074 (pdr5∆), 2.67 ± 0.069 (san1∆) and 2.63 ± 0.08 (ubr1∆).

With PTVDEQRQYKVQLLLHI [SNF11], the protein stability index is, setting by setting: (doa10∆) 1.8 ± 0.12; (pdr5∆) 1.95 ± 0.082; (san1∆) 1.82 ± 0.12; (ubr1∆) 1.89 ± 0.065.

Sequence KLDKQINMADRSLGLQQ [POP6] showed a protein stability index (doa10∆) of 3.02 ± 0.12, a protein stability index (pdr5∆) of 3.46 ± 0.21, a protein stability index (san1∆) of 3.02 ± 0.16 and a protein stability index (ubr1∆) of 3.62 ± 0.26.

In turn, KMENLMRLIKRVRAESL [YJL039C/NUP192] showed a protein stability index (doa10∆) of 1.49 ± 0.083, a protein stability index (pdr5∆) of 1.19 ± 0.1, a protein stability index (san1∆) of 1.32 ± 0.23 and a protein stability index (ubr1∆) of 1.12 ± 0.099.

Take NIAKDLKWKKGIRGKLV [SMC1]: the protein stability index runs as follows: (doa10∆) 1.37 ± 0.12; (pdr5∆) 2.04 ± 0.14; (san1∆) 2.23 ± 0.12.

As to HFTEIKLNKVDKNELQQ [SIR3], the protein stability index was 2.86 ± 0.056 (doa10∆), 2.88 ± 0.056 (pdr5∆), 3 ± 0.04 (san1∆) and 3.07 ± 0.049 (ubr1∆).

Turning to RHFGMGPHKGKAPRILS [RPL18A], the protein stability index reads like this: (doa10∆) 2.57 ± 0.14; (pdr5∆) 2.52 ± 0.079; (san1∆) 3.09 ± 0.13; (ubr1∆) 2.73 ± 0.1.

IKRMAIRNIVEAAAVRD [RPS26A]: the protein stability index turned out to be 1.29 ± 0.069 (doa10∆), 1.68 ± 0.097 (pdr5∆), 1.83 ± 0.16 (san1∆) and 1.93 ± 0.055 (ubr1∆).

As to IGKDTFVTRKSRKRAKK [PRP8], the protein stability index is 3.01 ± 0.092 (doa10∆), 2.84 ± 0.096 (pdr5∆), 2.87 ± 0.078 (san1∆) and 3.25 ± 0.049 (ubr1∆).

QDQYKEGIKVVDIDDPD [SNF2]: the protein stability index runs as follows: (doa10∆) 2.97 ± 0.16; (pdr5∆) 2.45 ± 0.086; (san1∆) 2.13 ± 0.071; (ubr1∆) 2.54 ± 0.073.

In the case of DRKNRAPPQRPRFNREN [RPS26A], the protein stability index was determined as 2.81 ± 0.11 (doa10∆), 2.64 ± 0.082 (pdr5∆), 3.29 ± 0.11 (san1∆) and 3.02 ± 0.091 (ubr1∆).

In the case of GKIPTLKISLIQIFRAH [PRP8], the protein stability index worked out at 1.72 ± 0.045 (doa10∆), 1.44 ± 0.044 (pdr5∆), 1.33 ± 0.073 (san1∆) and 1.29 ± 0.041 (ubr1∆).

For LLIDQFSPVISQSLTSI [SWI1], the protein stability index reads like this: (doa10∆) 1.64 ± 0.074; (pdr5∆) 1.99 ± 0.067; (san1∆) 1.64 ± 0.11; (ubr1∆) 1.66 ± 0.064.

Turning to DPWNKLKHTDYWYEQDS [RPB3], for the setting “ubr1∆”, the protein stability index came out at 2.99 ± 0.12.

With RYENNDDDERVEYNLFT [BRN1], the protein stability index is 3.17 ± 0.1 (doa10∆), 3.27 ± 0.087 (pdr5∆), 3.07 ± 0.064 (san1∆) and 3.04 ± 0.043 (ubr1∆).

With HQQQQQQQQQQQQQQQQ [SNF5], the protein stability index by setting is: (doa10∆) 2.78 ± 0.056; (pdr5∆) 2.88 ± 0.049; (san1∆) 2.88 ± 0.056; (ubr1∆) 2.93 ± 0.055.

In the case of AEEIGVEHLLRDVRDQA [RPN8], the protein stability index is, setting by setting: (doa10∆) 3.2 ± 0.14; (san1∆) 2.96 ± 0.15.

Turning to SKKLNLKIHQSHLVVPY [YMR129W/POM152], the protein stability index reads like this: (doa10∆) 2.32 ± 0.15; (pdr5∆) 1.95 ± 0.086; (ubr1∆) 2.88 ± 0.14.
